The values that follow come from patent US20110301073.

Holding throughout (test): cell_activity
For data set [1], the system named is C1 TALEN 101380 (synthetic (Xanthomonas TALE)). The note with it: paired with 101381.
Data set [2] has as its system C1 TALEN 101378 (synthetic (Xanthomonas TALE)). The note with it: paired with 101379.
For data set [3], the system named is C1 TALEN 101381 (synthetic (Xanthomonas TALE)). The note with it: paired with 101380; site given 3'-5', reversed here.
For data set [4], the system named is C1 TALEN 101371 (synthetic (Xanthomonas TALE)). The conditions noted are these: paired with 101370; site given 3'-5', reversed here.
Data set [5] concerns C1 TALEN 101370 (synthetic (Xanthomonas TALE)). The note with it: paired with 101371.

Turning to “TCCTACGACGAGGAGGAT (double strand) [101380 site]”, the activity (relative DLSSA units) in data set [1] was determined as 10.3.
Consider “TGAACTACCTCCGGCCC (double strand) [101378 site]”, for which the activity (relative DLSSA units) in data set [2] turned out to be 7.1.
Sequence “TTGCCGAGGAGCCTGT (double strand) [101381 site]” came in with an activity (relative DLSSA units) in data set [3] of 10.3.
The sequence “TCGTCCACGCCCCTCTCT (double strand) [101371 site]” gave an activity (relative DLSSA units) in data set [4] of 5.
In turn, “TGGGGAGGAGGGCGTGCT (double strand) [101370 site]” yielded an activity (relative DLSSA units) in data set [5] of 5.
